The text below walks through data of PMC10397807, “Automated simulation-based membrane protein refinement into cryo-EM data” (Biophysical Journal, 2023).

The series deals with the molecule itself. Kind of series: cryo-EM structure; single-particle reconstruction of maltoporin solubilized in DDM, C3 symmetry imposed, 3.0 Å.

B1: maltoporin (natural protein, E. coli (endogenous in C43(DE3)), UniProt P02943 26-446, looked up)
chain: VDFHGYARSGIGWTGSGGEQQCFQTTGAQSKYRLGNECETYAELKLGQEVWKEGDKSFYFDTNVAYSVAQQNDWEATDPAFREANVQGKNLIEWLPGSTIWAGKRFYQRHDVHMIDFYYWDISGPGAGLENIDVGFGKLSLAATRSSEAGGSSSFASNNIYDYTNETANDVFDVRLAQMEINPGGTLELGVDYGRANLRDNYRLVDGASKDGWLFTAEHTQSVLKGFNKFVVQYATDSMTSQGKGLSQGSGVAFDNEKFAYNINNNGHMLRILDHGAISMGDNWDMMYVGMYQDINWDNDNGTKWWTVGIRPMYKWTPIMSTVMEIGYDNVESQRTGDKNNQYKITLAQQWQAGDSIWSRPAIRVFATYAKWDEKWGYDYTGNADNNANFGKAVPADFNGGSFGRGDSDEWTFGAQMEIWW
notes: maltoporin of Escherichia coli, endogenously expressed; native sample purified from E. coli; model fitted from PDB 1MAL and deposited as PDB 8B7V; source: endogenous, E. coli C43(DE3)
With B1, the binding result is recorded as “binds”.
